Our source for the interaction with PP1 by co-IP densitometry, percent of wild type values is article PMC5746516.

In this experiment the target is Protein phosphatase 1 (PP1) (UniProt P62136). The experiment can be described thus: co-IP.
Sequence of UniProt P62136 (P62136 whole entry): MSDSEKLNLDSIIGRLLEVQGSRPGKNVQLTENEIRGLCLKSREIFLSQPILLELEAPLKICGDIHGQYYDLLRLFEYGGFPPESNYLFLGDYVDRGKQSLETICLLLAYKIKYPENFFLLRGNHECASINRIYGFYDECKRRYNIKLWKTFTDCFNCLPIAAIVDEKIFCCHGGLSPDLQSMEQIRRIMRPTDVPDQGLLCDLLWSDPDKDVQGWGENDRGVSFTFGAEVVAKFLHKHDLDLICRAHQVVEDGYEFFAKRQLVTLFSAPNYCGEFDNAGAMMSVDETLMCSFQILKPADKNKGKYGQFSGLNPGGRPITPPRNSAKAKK

B1: NBCe1-B PP1-binding consensus residue deletion mutant (deletion of amino acids 922-927), GFP-tagged (natural protein)
chain: MEDEAVLDRGASFLKHVCDEEEVEGHHTIYIGVHVPKSYRRRRRHKRKTGHKEKKEKERISENYSDKSDIENADESSSSILKPLISPAAERIRFILGEEDDSPAPPQLFTELDELLAVDGQEMEWKETARWIKFEEKVEQGGERWSKPHVATLSLHSLFELRTCMEKGSIMLDREASSLPQLVEMIVDHQIETGLLKPELKDKVTYTLLRKHRHQTKKSNLRSLADIGKTVSSASRMFTNPDNGSPAMTHRNLTSSSLNDISDKPEKDQLKNKFMKKLPRDAEASNVLVGEVDFLDTPFIAFVRLQQAVMLGALTEVPVPTRFLFILLGPKGKAKSYHEIGRAIATLMSDEVFHDIAYKAKDRHDLIAGIDEFLDEVIVLPPGEWDPAIRIEPPKSLPSSDKRKNMYSGGENVQMNGDTPHDGGHGGGGHGDCEELQRTGRFCGGLIKDIKRKAPFFASDFYDALNIQALSAILFIYLATVTNAITFGGLLGDATDNMQGVLESFLGTAVSGAIFCLFAGQPLTILSSTGPVLVFERLLFNFSKDNNFDYLEFRLWIGLWSAFLCLILVATDASFLVQYFTRFTEEGFSSLISFIFIYDAFKKMIKLADYYPINSNFKVGYNTLFSCTCVPPDPANISISNDTTLAPEYLPTMSSTDMYHNTTFDWAFLSKKECSKYGGNLVGNNCNFVPDITLMSFILFLGTYTSSMALKKFKTSPYFPTTARKLISDFAIILSILIFCVIDALVGVDTPKLIVPSEFKPTSPNRGWFVPPFGENPWWVCLAAAIPALLVTILIFMDQQITAVIVNRKEHKLKKGAGYHLDLFWVAILMVICSLMALPWYVAATVISIAHIDSLKMETETSAPGEQPKFLGVREQRVTGTLVFILTGLSVFMAPILKFIPMPVLYGVFLYMGVASLNGVQLLLMPLKHQPDFIYLRHVPLRRVHLFTFLQVLCLALLWILKSTVAAIIFPVMILALVAVRKGMDYLFSQHDLSFLDDVIPEKDKKKKEDEKKKKKKKGSLDSDNDDSDCPYSEKVPSIKIPMDIMEQQPFLSDSKPSDRERSPTFLERHTSC
In turn, B1 displayed an interaction with PP1 by co-IP densitometry, percent of wild type of 18.2%.

B2: NBCe1-B 3-point mutant (F922A, R925A, and K927A), GFP-tagged (natural protein)
chain: MEDEAVLDRGASFLKHVCDEEEVEGHHTIYIGVHVPKSYRRRRRHKRKTGHKEKKEKERISENYSDKSDIENADESSSSILKPLISPAAERIRFILGEEDDSPAPPQLFTELDELLAVDGQEMEWKETARWIKFEEKVEQGGERWSKPHVATLSLHSLFELRTCMEKGSIMLDREASSLPQLVEMIVDHQIETGLLKPELKDKVTYTLLRKHRHQTKKSNLRSLADIGKTVSSASRMFTNPDNGSPAMTHRNLTSSSLNDISDKPEKDQLKNKFMKKLPRDAEASNVLVGEVDFLDTPFIAFVRLQQAVMLGALTEVPVPTRFLFILLGPKGKAKSYHEIGRAIATLMSDEVFHDIAYKAKDRHDLIAGIDEFLDEVIVLPPGEWDPAIRIEPPKSLPSSDKRKNMYSGGENVQMNGDTPHDGGHGGGGHGDCEELQRTGRFCGGLIKDIKRKAPFFASDFYDALNIQALSAILFIYLATVTNAITFGGLLGDATDNMQGVLESFLGTAVSGAIFCLFAGQPLTILSSTGPVLVFERLLFNFSKDNNFDYLEFRLWIGLWSAFLCLILVATDASFLVQYFTRFTEEGFSSLISFIFIYDAFKKMIKLADYYPINSNFKVGYNTLFSCTCVPPDPANISISNDTTLAPEYLPTMSSTDMYHNTTFDWAFLSKKECSKYGGNLVGNNCNFVPDITLMSFILFLGTYTSSMALKKFKTSPYFPTTARKLISDFAIILSILIFCVIDALVGVDTPKLIVPSEFKPTSPNRGWFVPPFGENPWWVCLAAAIPALLVTILIFMDQQITAVIVNRKEHKLKKGAGYHLDLFWVAILMVICSLMALPWYVAATVISIAHIDSLKMETETSAPGEQPKFLGVREQRVTGTLVFILTGLSVFMAPILKFIPMPVLYGVFLYMGVASLNGVQAMDALALLLMPLKHQPDFIYLRHVPLRRVHLFTFLQVLCLALLWILKSTVAAIIFPVMILALVAVRKGMDYLFSQHDLSFLDDVIPEKDKKKKEDEKKKKKKKGSLDSDNDDSDCPYSEKVPSIKIPMDIMEQQPFLSDSKPSDRERSPTFLERHTSC
B2 showed an interaction with PP1 by co-IP densitometry, percent of wild type of 28.9%.
